Laboratory results: patent US20100041597A1 (published 2010)

T1: PKC-ε (purified isoform) (Homo sapiens (Human), UniProt Q02156 1-737)
T1 construct: also called PKC-epsilon; PKCepsilon
T1 sequence: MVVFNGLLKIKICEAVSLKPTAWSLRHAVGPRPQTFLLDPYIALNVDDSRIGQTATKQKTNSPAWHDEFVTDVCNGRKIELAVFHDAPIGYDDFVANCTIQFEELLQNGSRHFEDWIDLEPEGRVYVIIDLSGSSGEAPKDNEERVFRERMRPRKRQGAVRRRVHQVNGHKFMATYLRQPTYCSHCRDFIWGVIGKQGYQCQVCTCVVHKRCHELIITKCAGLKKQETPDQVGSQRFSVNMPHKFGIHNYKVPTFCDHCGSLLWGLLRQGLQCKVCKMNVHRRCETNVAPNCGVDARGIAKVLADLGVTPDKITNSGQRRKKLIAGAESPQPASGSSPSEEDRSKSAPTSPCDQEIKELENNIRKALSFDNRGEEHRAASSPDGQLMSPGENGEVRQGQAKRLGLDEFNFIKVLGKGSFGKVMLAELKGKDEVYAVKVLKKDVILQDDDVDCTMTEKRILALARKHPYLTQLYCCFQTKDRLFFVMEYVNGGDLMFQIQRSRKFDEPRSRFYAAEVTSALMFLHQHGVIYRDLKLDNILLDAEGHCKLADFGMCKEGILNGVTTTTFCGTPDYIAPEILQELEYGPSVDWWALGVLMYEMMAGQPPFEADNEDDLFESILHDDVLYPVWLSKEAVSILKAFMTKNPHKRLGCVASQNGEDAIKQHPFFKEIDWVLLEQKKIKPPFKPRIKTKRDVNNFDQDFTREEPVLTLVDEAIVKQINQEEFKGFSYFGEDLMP


Columns and labels:
[1] = molecular target: T2, PKC-βII (purified isoform) (Homo sapiens (Human), UniProt P05771 2-621); test: competitive ELISA on purified PKC-βII vs anti-PKC-βII Ab; PRE 100 µM
T2 construct: also called PKC-beta II
Protocol: (§1) Greiner 96 well ELISA plates were coated with the appropriate PKC isoform diluted in PBSN (PBS with Calcium/Magnesium+0.05% Sodium azide w/w). 50 μL/well at 250 ng/mL was used. Control wells contained PBSN only. Plates were incubated overnight at 4° C.
(§2) The plates were washed 3 times with 200 μL of dH₂O per well, then 100 μL of blocking solution was added per well and the plate incubated for 1 h at 37° C. The washing steps with dH₂O were repeated and 50 μL of the appropriate PRE solution (PRE stock solution [20 mM in DMSO] diluted in PBSN) was added and the plate incubated for 1 h at room temperature.
(§3) 50 μL of 1:1000 dilution of Alkaline Phosphatase (AP) conjugated antibody (anti-rabbit for all except zeta, which was anti-goat) was then added and the plate incubated for 1 h at room temperature. Washing with dH₂O was then repeated. Finally, 100 μL of pNPP solution in pNPP buffer (2 mM MgCl₂, 100 mM Sodium bicarbonate in water, pH 9.8) was added to all wells and incubated for 8 minutes for α, βI, βII ε, and ζ, or for 15-20 mins for […] (until sufficient coloration is observed). The reaction was stopped by addition of Stop solution (2N NaOH) and the absorbance at 405 nm was read on a Galaxy Plate reader.

[2] = molecular target: T1, PKC-ε (purified isoform); test: competitive ELISA on purified PKC-ε vs anti-PKC-ε Ab; PRE 100 µM
Protocol: as §1, §2, §3

[3] = molecular target: T1, PKC-ε (purified isoform); test: competitive ELISA on purified PKC-ε vs anti-PKC-ε Ab; PRE 200 µM
Protocol: as §1, §2, §3

[4] = molecular target: T1, PKC-ε (purified isoform); test: competitive ELISA on purified PKC-ε vs anti-PKC-ε Ab; PRE 50 µM
Protocol: as §1, §2, §3

[5] = molecular target: T3, PKC-α (purified isoform) (Homo sapiens (Human), UniProt P17252 2-672); test: competitive ELISA on purified PKC-α vs anti-PKC-α Ab; PRE 100 µM
T3 construct: also called PKC-alpha; PKCalpha
Protocol: as §1
After incubation, 5 μL of 1.1:400 anti-PKC (isoform specific antibody) was added per well (to provide a final concentration of 1:4000). For PKC-epsilon, 1.1:800 dilution was used and for PKC-zeta a 1.1:100 dilution was used due to high and low binding affinity, respectively. The plates were then incubated 1 h at room temperature, followed by washing with dH₂O as described above.
as §3

T2 sequence (P05771 other isoform, or with tags, fused parts or gaps limits assumed): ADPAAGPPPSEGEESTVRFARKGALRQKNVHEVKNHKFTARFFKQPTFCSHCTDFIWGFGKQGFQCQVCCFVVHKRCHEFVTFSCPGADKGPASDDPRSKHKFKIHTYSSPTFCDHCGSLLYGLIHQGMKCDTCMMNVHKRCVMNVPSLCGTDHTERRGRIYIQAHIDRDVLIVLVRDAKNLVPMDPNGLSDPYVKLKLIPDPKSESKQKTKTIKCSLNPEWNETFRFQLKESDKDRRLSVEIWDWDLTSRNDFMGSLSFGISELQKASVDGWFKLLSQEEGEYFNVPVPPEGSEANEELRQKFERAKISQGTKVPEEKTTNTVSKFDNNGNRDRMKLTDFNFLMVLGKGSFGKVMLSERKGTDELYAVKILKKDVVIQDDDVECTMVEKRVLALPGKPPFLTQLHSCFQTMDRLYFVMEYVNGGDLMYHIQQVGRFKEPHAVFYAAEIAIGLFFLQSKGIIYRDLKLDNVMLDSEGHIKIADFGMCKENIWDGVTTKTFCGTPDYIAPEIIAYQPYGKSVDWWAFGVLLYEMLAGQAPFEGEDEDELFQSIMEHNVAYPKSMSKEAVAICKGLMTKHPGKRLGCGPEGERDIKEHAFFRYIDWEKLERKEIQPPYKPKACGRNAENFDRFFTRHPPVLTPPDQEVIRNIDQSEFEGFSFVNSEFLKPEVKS

Binder	binding capacity (%) [1]	binding capacity (%) [2]	binding capacity (%) [3]	binding capacity (%) [4]	binding capacity (%) [5]
Ac-KDANQLIGISI-NH2 (Synthetic peptide; also called peptide PRE 6) [PRE 6]	0%	–	–	–	–
Ac-AKGIQEVKGGDAQNLIGISI-NH2 (Synthetic peptide; also called peptide PRE 3) [PRE 3]	–	31.5%	31%	34%	26.5%
Ac-KDAQNLI-NH2 (Synthetic peptide; also called peptide PRE 12; Ac-KDAQNLI-NH2) [PRE 12]	–	0.28%	0%	10.4%	5.16%
Ac-RDAQNLI-NH2 (Synthetic peptide; also called peptide PRE 13; Ac-RDAQNLI-NH2) [PRE 13]	1.63%	0%	0.85%	0%	–
Ac-KDAQNLIGISI-NH2 (Synthetic peptide; also called peptide PRE 4) [PRE 4]	13.5%	–	–	–	21.9%
Ac-RDAQNLIGISI-NH2 (Synthetic peptide; also called peptide PRE 11) [PRE 11]	–	13%	9.84%	2.25%	5.96%
Ac-ISIGILQNADK-NH2 (Synthetic peptide (retro form of PRE 4); also called peptide PRE 7) [PRE 7]	–	14%	3.78%	8.04%	6.72%
